± gives the standard deviation of the averaged measurements.
B1: library; a variant is named by its letters at N, in order (parent)
chain: GCUGUCACCGGAAUACCAGCAUCGUCUUGAUGCCCUUGGAAGUCCGGUCUGAUGAGUCCNNNNNGGACGAAACAGC

How the values were obtained:
theophylline [1] = variants of: B1; assay: FACS-Seq fitted mean relative fluorescence mCherry/BFP without ligand (log10 relative fluorescence); higher = higher reporter protein expression; conditions: HEK293T, ligand present: no
Method in brief: (§1)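 HEK293T libraries were lentivirally transduced with an mCherry reporter carrying the ribozyme switch and an EF1α-BFP marker, enriched, and incubated for 48 h with or without ligand before sorting into 6 bins by mCherry/BFP. Genomic DNA from each bin was PCR-amplified, barcoded and sequenced on MiSeq. Fluorescence is the fitted normal mean of the bin counts. The fit used log10(mCherry/BFP), and means were scaled to five spiked-in control ribozymes.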

theophylline [2] = variants of: B1; assay: normalized RNA/DNA level with ligand (relative to sTRSVctl = 100) (log10 (% of sTRSVctl)); higher = less ribozyme self-cleavage, higher mRNA level; conditions: ligand concentration (+) RNA-Seq: 5 mM, HEK293T, reporter: mCherry (pCS4076), ligand present: yes
Method in brief: (§2)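 Library plasmids carrying ribozyme switches linked to mCherry, or to eGFP in some ligand experiments, were transfected into HEK293T at 4 µg per 6-well well, with any ligand added 1 h earlier. Seventy-two hours on, total RNA was extracted with EDTA and reverse-transcribed, amplified, barcoded and sequenced. RNA level was RNA over DNA reads normalized to a spiked-in non-cleaving sequence or to the top sequences, then scaled and log-transformed. The top set was 25 sequences, the transform was ×100 and log10, and sequences needed ≥100 DNA reads.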

theophylline [3] = variants of: B1; assay: normalized RNA/DNA level without ligand (relative to sTRSVctl = 100) (log10 (% of sTRSVctl)); higher = less ribozyme self-cleavage, higher mRNA level; conditions: HEK293T, reporter: mCherry (pCS4076), ligand present: no
Method in brief: as §2

theophylline [4] = variants of: B1; assay: FACS-Seq fitted mean relative fluorescence mCherry/BFP with ligand (log10 relative fluorescence); ligand concentration (+) FACS-Seq: 1 mM; higher = higher reporter protein expression; conditions: HEK293T, ligand present: yes
Method in brief: as §1

Variant	FACS-Seq fitted mean (log10) (theophylline [1])	normalized RNA/DNA level with ligand (log10) (theophylline [2])	normalized RNA/DNA level without ligand (log10) (theophylline [3])	FACS-Seq fitted mean (log10) (theophylline [4])
AAGGA	0.338 ± 0.022	2 ± 0.025	1.43 ± 0.099	0.8561 ± 0.0071
ACUCC	0.767 ± 0.21	2 ± 0.068	1.96 ± 0.026	0.658 ± 0.024
ACUCA	0.648 ± 0.038	1.97 ± 0.14	1.92 ± 0.076	0.659 ± 0.088
AACGG	0.852 ± 0.14	2 ± 0.049	1.8 ± 0.057	0.998 ± 0.083
CGUUC	0.959 ± 0.048	1.8643 ± 0.00065	1.75 ± 0.07	0.949 ± 0.067
ACCCC	0.753 ± 0.1	2.037 ± 0.0066	1.99 ± 0.053	0.657 ± 0.08
GAAUU	0.234 ± 0.038	2.02 ± 0.045	1.75 ± 0.018	0.4307 ± 0.002
GAAUA	1.08 ± 0.19	1.85 ± 0.068	1.627 ± 0.0033	0.942 ± 0.085
AGCCU	0.951 ± 0.011	1.98 ± 0.023	1.91 ± 0.11	1.06 ± 0.071
CGGAA	-0.0214 ± 0.074	1.9 ± 0.055	1.25 ± 0.17	0.354 ± 0.0054
UACGA	0.287 ± 0.021	2.07 ± 0.025	1.72 ± 0.097	0.324 ± 0.024
UACGC	0.81 ± 0.14	2.01 ± 0.038	1.98 ± 0.17	0.916 ± 0.039
GAUUU	0.1728 ± 0.00021	2.05 ± 0.067	1.78 ± 0.12	0.28 ± 0.031
CUUUC	1.07 ± 0.048	2.07 ± 0.067	2 ± 0.092	0.998 ± 0.19
AGACA	0.0301 ± 0.062	1.87 ± 0.04	1.72 ± 0.031	0.35727 ± 0.0003
AGACG	0.74 ± 0.1	2.01 ± 0.082	1.89 ± 0.021	0.863 ± 0.018
CCGAC	0.958 ± 0.04	1.94 ± 0.04	1.91 ± 0.13	1.06 ± 0.043
UUUCC	1.01 ± 0.062	1.99 ± 0.028	1.97 ± 0.04	0.9258 ± 0.0036
